According to article PMC3495168 (Biology of the cell / under the auspices of the European …, 2011):

B1: Flag-ARAP1 (natural protein, human, UniProt Q96P48 1-1450, looked up)
chain: MAEAGDAALSVAEWLRALHLEQYTGLFEQHGLVWATECQGLSDTRLMDMGMLLPGHRRRILAGLLRAHTSPAPAPRPTPRPVPMKRHIFRSPPVPATPPEPLPTTTEDEGLPAAPPIPPRRSCLPPTCFTTPSTAAPDPVLPPLPAKRHLAELSVPPVPPRTGPPRLLVSLPTKEEESLLPSLSSPPQPQSEEPLSTLPQGPPQPPSPPPCPPEIPPKPVRLFPEFDDSDYDEVPEEGPGAPARVMTKKEEPPPSRVPRAVRVASLLSEGEELSGDDQGDEEEDDHAYEGVPNGGWHTSSLSLSLPSTIAAPHPMDGPPGGSTPVTPVIKAGWLDKNPPQGSYIYQKRWVRLDTDHLRYFDSNKDAYSKRFISVACISHVAAIGDQKFEVITNNRTFAFRAESDVERKEWMQALQQAMAEQRARARLSSAYLLGVPGSEQPDRAGSLELRGFKNKLYVAVVGDKVQLYKNLEEYHLGIGITFIDMSVGNVKEVDRRSFDLTTPYRIFSFSADSELEKEQWLEAMQGAIAEALSTSEVAERIWAAAPNRFCADCGAPQPDWASINLCVVICKRCAGEHRGLGAGVSKVRSLKMDRKVWTETLIELFLQLGNGAGNRFWAANVPPSEALQPSSSPSTRRCHLEAKYREGKYRRYHPLFGNQEELDKALCAAVTTTDLAETQALLGCGAGINCFSGDPEAPTPLALAEQAGQTLQMEFLRNNRTTEVPRLDSMKPLEKHYSVVLPTVSHSGFLYKTASAGKLLQDRRAREEFSRRWCVLGDGVLSYFENERAVTPNGEIRASEIVCLAVPPPDTHGFEHTFEVYTEGERLYLFGLESAEQAHEWVKCIAKAFVPPLAEDLLARDFERLGRLPYKAGLSLQRAQEGWFSLSGSELRAVFPEGPCEEPLQLRKLQELSIQGDSENQVLVLVERRRTLYIQGERRLDFMGWLGAIQKAAASMGDTLSEQQLGDSDIPVIVYRCVDYITQCGLTSEGIYRKCGQTSKTQRLLESLRQDARSVHLKEGEQHVDDVSSALKRFLRDLPDGLFTRAQRLTWLEASEIEDEEEKVSRYRELLVRLPPVNRATVKALISHLYCVQCFSDTNQMNVHNLAIVFGPTLFQTDGQDYKAGRVVEDLINHYVVVFSVDEEELRKQREEITAIVKMRVAGTASGTQHAGDFICTVYLEEKKAETEQHIKVPASMTAEELTLEILDRRNVGIREKDYWTCFEVNEREEAERPLHFAEKVLPILHGLGTDSHLVVKKHQAMEAMLLYLASRVGDTKHGMMKFREDRSLLGLGLPSGGFHDRYFILNSSCLRLYKEVRSQRPWSGAPETSHRPEKEWPIKSLKVYLGVKKKLRPPTCWGFTVVHETEKHEKQQWYLCCDTQMELREWFATFLFVQHDGLVWPSEPSRVSRAVPEVRLGSVSLIPLRGSENEMRRSVAAFTADPLSLLRNV
B2: Flag-[R86/90A]ARAP1 (natural protein, human, UniProt Q96P48 1-1450, looked up)
chain: MAEAGDAALSVAEWLRALHLEQYTGLFEQHGLVWATECQGLSDTRLMDMGMLLPGHRRRILAGLLRAHTSPAPAPRPTPRPVPMKAHIFASPPVPATPPEPLPTTTEDEGLPAAPPIPPRRSCLPPTCFTTPSTAAPDPVLPPLPAKRHLAELSVPPVPPRTGPPRLLVSLPTKEEESLLPSLSSPPQPQSEEPLSTLPQGPPQPPSPPPCPPEIPPKPVRLFPEFDDSDYDEVPEEGPGAPARVMTKKEEPPPSRVPRAVRVASLLSEGEELSGDDQGDEEEDDHAYEGVPNGGWHTSSLSLSLPSTIAAPHPMDGPPGGSTPVTPVIKAGWLDKNPPQGSYIYQKRWVRLDTDHLRYFDSNKDAYSKRFISVACISHVAAIGDQKFEVITNNRTFAFRAESDVERKEWMQALQQAMAEQRARARLSSAYLLGVPGSEQPDRAGSLELRGFKNKLYVAVVGDKVQLYKNLEEYHLGIGITFIDMSVGNVKEVDRRSFDLTTPYRIFSFSADSELEKEQWLEAMQGAIAEALSTSEVAERIWAAAPNRFCADCGAPQPDWASINLCVVICKRCAGEHRGLGAGVSKVRSLKMDRKVWTETLIELFLQLGNGAGNRFWAANVPPSEALQPSSSPSTRRCHLEAKYREGKYRRYHPLFGNQEELDKALCAAVTTTDLAETQALLGCGAGINCFSGDPEAPTPLALAEQAGQTLQMEFLRNNRTTEVPRLDSMKPLEKHYSVVLPTVSHSGFLYKTASAGKLLQDRRAREEFSRRWCVLGDGVLSYFENERAVTPNGEIRASEIVCLAVPPPDTHGFEHTFEVYTEGERLYLFGLESAEQAHEWVKCIAKAFVPPLAEDLLARDFERLGRLPYKAGLSLQRAQEGWFSLSGSELRAVFPEGPCEEPLQLRKLQELSIQGDSENQVLVLVERRRTLYIQGERRLDFMGWLGAIQKAAASMGDTLSEQQLGDSDIPVIVYRCVDYITQCGLTSEGIYRKCGQTSKTQRLLESLRQDARSVHLKEGEQHVDDVSSALKRFLRDLPDGLFTRAQRLTWLEASEIEDEEEKVSRYRELLVRLPPVNRATVKALISHLYCVQCFSDTNQMNVHNLAIVFGPTLFQTDGQDYKAGRVVEDLINHYVVVFSVDEEELRKQREEITAIVKMRVAGTASGTQHAGDFICTVYLEEKKAETEQHIKVPASMTAEELTLEILDRRNVGIREKDYWTCFEVNEREEAERPLHFAEKVLPILHGLGTDSHLVVKKHQAMEAMLLYLASRVGDTKHGMMKFREDRSLLGLGLPSGGFHDRYFILNSSCLRLYKEVRSQRPWSGAPETSHRPEKEWPIKSLKVYLGVKKKLRPPTCWGFTVVHETEKHEKQQWYLCCDTQMELREWFATFLFVQHDGLVWPSEPSRVSRAVPEVRLGSVSLIPLRGSENEMRRSVAAFTADPLSLLRNV

Biological target: GST-fused full length CIN85 (human, UniProt Q96B97-1 1-665)
Test: pull-down

Sequence of GST-fused full length CIN85 (Q96B97 whole entry, the tested form may be a part): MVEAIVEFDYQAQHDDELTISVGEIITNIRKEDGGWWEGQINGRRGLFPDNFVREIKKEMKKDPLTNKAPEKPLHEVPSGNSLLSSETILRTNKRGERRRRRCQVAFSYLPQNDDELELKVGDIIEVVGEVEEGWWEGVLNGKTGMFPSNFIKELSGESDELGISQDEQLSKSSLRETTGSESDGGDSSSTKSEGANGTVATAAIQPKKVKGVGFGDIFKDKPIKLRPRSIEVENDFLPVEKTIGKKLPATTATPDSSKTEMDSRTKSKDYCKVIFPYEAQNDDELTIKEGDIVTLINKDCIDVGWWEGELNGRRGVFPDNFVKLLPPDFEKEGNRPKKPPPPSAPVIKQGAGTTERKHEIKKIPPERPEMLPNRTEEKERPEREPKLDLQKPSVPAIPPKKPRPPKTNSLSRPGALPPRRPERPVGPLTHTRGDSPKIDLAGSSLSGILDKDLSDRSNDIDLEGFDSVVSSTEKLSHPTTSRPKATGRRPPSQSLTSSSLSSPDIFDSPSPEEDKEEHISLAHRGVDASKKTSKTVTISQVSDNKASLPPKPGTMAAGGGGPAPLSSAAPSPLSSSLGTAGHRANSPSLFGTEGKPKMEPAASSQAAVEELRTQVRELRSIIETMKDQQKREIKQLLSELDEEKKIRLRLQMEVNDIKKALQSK

Row | Binder | EC50 [nM] | fold more GST-CIN85 required for similar binding than for Flag-ARAP1 [fold]
1 | B1 | 5.6 ± 0.9 | –
2 | B2 | – | 8
